Assay results from patent publication US20210301026A1 (ULTRAHUMAN TWELVE, published 2021).
Where a chain is given by its changes, count along the chain named. Numbers in names are those of the source.

T1: monomeric cynomolgus monkey CSF1R ectodomain protein (cynomolgus monkey, UniProt P07333 20-517 (human entry))
T1 construct: also called monomeric cyno CSF1R; Cyno CSF1R
T1 chain: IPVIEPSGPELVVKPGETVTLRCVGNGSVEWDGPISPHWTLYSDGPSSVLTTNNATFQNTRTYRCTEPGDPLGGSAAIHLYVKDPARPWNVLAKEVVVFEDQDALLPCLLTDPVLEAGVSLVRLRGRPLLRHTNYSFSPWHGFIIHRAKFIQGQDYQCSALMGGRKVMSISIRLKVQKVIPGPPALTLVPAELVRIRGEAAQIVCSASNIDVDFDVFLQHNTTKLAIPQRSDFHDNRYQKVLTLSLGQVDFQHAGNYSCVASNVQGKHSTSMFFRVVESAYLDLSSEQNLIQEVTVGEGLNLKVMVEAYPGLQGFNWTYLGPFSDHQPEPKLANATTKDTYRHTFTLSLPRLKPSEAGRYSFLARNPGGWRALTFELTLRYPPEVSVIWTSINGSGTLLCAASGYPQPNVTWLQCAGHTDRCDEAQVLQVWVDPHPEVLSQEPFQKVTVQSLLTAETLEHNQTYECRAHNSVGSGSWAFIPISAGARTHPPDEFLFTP

T2: cynomolgus monkey CSF1R human Fc tagged recombinant protein (cynomolgus monkey, UniProt P07333 20-517 (human entry), limits assumed)
T2 construct: also called cyno CSF1R-Fc
T2 chain: T1 chain

B1: murine anti-CSF1R antibody 0301 (mu0301), v-domains in human IgG4(S228P) format (antibody, V domains shown)
VH: EVQLQQSGPELVRPGASVKMSCKASGYTFTDNYMIWVKQSHGKSLEWIGDINPYNGGTTFNQKFKGKATLTVEKSSSTAYMQLNSLTSEDSAVYYCARESPYFSNLYVMDYWGQGTSVTVSS
VL: NIVLTQSPASLAVSLGQRATISCKASQSVDYDGDNYMNWYQQKPGQPPKLLIYAASNLESGIPARFSGSGSGTDFTLNIHPVEEEDAATYYCHLSNEDLSTFGGGTKLEIK
B2: MH33 (antibody, human IgG4, V domains shown)
VH: QVQLVQSGAEVKKPGSSVKVSCKASGYTFSSAYMIWVRQAPGQGLEWMGDINPYNGGANYAQKFQGRVTITADESTSTAYMELSSLRSEDTAVYYCAREGPYFSNLYVMDYWGRGTLVTVSS
VL: EIVLTQSPATLSLSPGERATLSCRASQSVSYEGENYLNWYQQKPGQAPRLLIYAASNRATGIPARFSGSGSGTDFTLTISSPEPEDFAVYYCQLSNEDLLTFGGGTKVEIK
notes: Deimmunized MH5 derivative, human IgG4(S228P)/Ckappa IgG
B3: 26B07 (antibody, human IgG4, V domains shown)
VH: B2 VH with A32Y, R114Q
VL: B2 VL with S30E, E32Q, E34D, P82L
notes: Library-derived clone, tested as human IgG4(S228P)/Ckappa IgG; framework residue limits counted on the grafts
B4: humanized anti-CSF1R antibody 0301 (hu0301) (antibody, human IgG4, V domains shown)
VH: QVQLVQSGAEVKKPGSSVKVSCKASGYTFTDNYMIWVRQAPGQGLEWMGDINPYNGGTTFNQKFKGRVTITADKSTSTAYMELSSLRSEDTAVYYCARESPYFSNLYVMDYWGQGTLVTVSS
VL: EIVLTQSPATLSLSPGERATLSCKASQSVDYDGDNYMNWYQQKPGQAPRLLIYAASNLESGIPARFSGSGSGTDFTLTISSLEPEDFAVYYCHLSNEDLSTFGGGTKVEIK
notes: also called mAb-1
B5: 29H09 (antibody, human IgG4, V domains shown)
VH: B2 VH with S30T, A32Y, R114Q
VL: B2 VL with P82L
notes: as for B3
B6: 29D10 (antibody, human IgG4, V domains shown)
VH: B2 VH with S30T, A32Y, Y60F, R114Q
VL: B2 VL with P82L
notes: as for B3
B7: 30E06 (antibody, human IgG4, V domains shown)
VH: B2 VH with S30T, A32Y, A58T, N59T, R114Q
VL: B2 VL with N38A, R58L, P82L
notes: Library-derived clone; tested as human IgG4(S228P) / human Ckappa IgG; also called 30E6; mAb-3

target: T3, human CSF1R, membrane-presented on cells (human, UniProt P07333 20-972); experiment: flow cytometry on HEK-293 cells expressing human CSF1R, MFI
T3 construct: HEK-293 cells transiently transfected with human CSF1R (flow cytometry); the native receptor on primary human monocytes in the proliferation assay; also called human CSF1R+ HEK-293 cells; CSF1R on primary human CD14+ monocytes

EC50 (read off the curve) | Binder
~1 nM | B1
~0.7 nM | B2

Target: T1, monomeric cynomolgus monkey CSF1R …
Experiment: SPR Biacore, IgG captured, monomeric CSF1R analyte
Protocol: (§1) Affinity (KD) of purified IgGs was determined via SPR with antigen in-solution on a Biacore 3000 (GE). A mouse anti-human antibody (CH1 specific) was immobilized on a CM5 Sensor Chip to a level of 2000 RU in acetate buffer at pH 4.5 using amine coupling following the Wizard instructions for two channels. One channel was used for background signal correction. The standard running buffer HBS-EP pH 7.4 was used. Regeneration was performed with a single injection of 10 μl of 10 mM Glycine at pH 1.5 at 20 μl/minute. IgG samples were injected for 2 minutes at 50 nM at 30 μl/min followed by and off-rate of 60 seconds. The monomeric ectodomain protein (human CSF1R or cynomolgus monkey CSF1R) was injected in two fold serial dilutions from 100 nM down to 3.1 nM, for 2 minutes at 30 μl/min followed by an off-rate of 300 seconds. The obtained sensorgrams were analysed using the Biacore 3000 evaluation (BIAevaluation) software. The KD was calculated by simultaneous fitting of the association and dissociation phases to a 1:1 Langmuir binding model.
(§2) Biacore analyses of binding affinity were performed for all IgGs to solution-phase, monomeric human and cyno CSF1R proteins (Table 6). […] Affinity differentials of less than 3-fold between human and cyno target orthologs are highly beneficial in pre-clinical drug development analyses as they allow more accurate design and interpretation of e.g. monkey safety, PK and PD modelling experiments.

Kd | koff | kon | Binder
0.1 nM | 7.4e-05 s⁻¹ | 740000 M⁻¹ s⁻¹ | B1
0.85 nM | 0.00026 s⁻¹ | 310000 M⁻¹ s⁻¹ | B3
0.66 nM | 0.00033 s⁻¹ | 500000 M⁻¹ s⁻¹ | B4
0.42 nM | 0.00023 s⁻¹ | 550000 M⁻¹ s⁻¹ | B5
0.42 nM | 0.00022 s⁻¹ | 520000 M⁻¹ s⁻¹ | B6
0.25 nM | 0.00014 s⁻¹ | 570000 M⁻¹ s⁻¹ | B7

target: T4, monomeric human CSF1R ectodomain protein (human, UniProt P07333 20-517); experiment: SPR Biacore, IgG captured, monomeric CSF1R analyte
T4 construct: also called biotinylated monomeric human CSF1R
Protocol: as §1, §2

Kd | koff | kon | Binder
0.024 nM | 6.9e-05 s⁻¹ | 2.9e+06 M⁻¹ s⁻¹ | B1
0.29 nM | 0.00042 s⁻¹ | 1.5e+06 M⁻¹ s⁻¹ | B3
0.21 nM | 0.00047 s⁻¹ | 2.3e+06 M⁻¹ s⁻¹ | B4
0.19 nM | 0.00034 s⁻¹ | 1.8e+06 M⁻¹ s⁻¹ | B5
0.2 nM | 0.00037 s⁻¹ | 1.9e+06 M⁻¹ s⁻¹ | B6
0.11 nM | 0.00019 s⁻¹ | 1.9e+06 M⁻¹ s⁻¹ | B7

Target: T1, monomeric cynomolgus monkey CSF1R …
Experiment: SPR Biacore, IgG captured, monomeric CSF1R analyte
Remark: another data set of the same source
Protocol: as §1

Kd | koff | kon | Binder
0.1 nM | 7.4e-05 s⁻¹ | 740000 M⁻¹ s⁻¹ | B1
0.66 nM | 0.00033 s⁻¹ | 500000 M⁻¹ s⁻¹ | B4
1.74 nM | 0.00115 s⁻¹ | 660000 M⁻¹ s⁻¹ | B2

target: T4, monomeric human CSF1R ectodomain protein; experiment: SPR Biacore, IgG captured, monomeric CSF1R analyte; remark: another data set of the same source
Protocol: as §1

Kd | koff | kon | Binder
0.024 nM | 6.9e-05 s⁻¹ | 2.9e+06 M⁻¹ s⁻¹ | B1
0.21 nM | 0.00047 s⁻¹ | 2.3e+06 M⁻¹ s⁻¹ | B4
1.09 nM | 0.00144 s⁻¹ | 1.32e+06 M⁻¹ s⁻¹ | B2

Target: T1, monomeric cynomolgus monkey CSF1R …
Experiment: SPR Biacore; KD on monomeric cyno CSF1R against KD of the same antibody on monomeric human CSF1R as reference
Protocol: as §1

human/cyno affinity differential | Binder
> 3 fold | B4

target: T5, human CSF1R human Fc tagged recombinant protein (human, UniProt P07333 20-517); experiment: direct titration ELISA on coated human CSF1R-Fc, IgG4(S228P) format, OD 450 nm
T5 construct: also called human CSF1R-Fc
Protocol: (§3) Binding and cross-reactivity of the lead panel to the recombinant proteins was initially assessed by binding ELISA. The human CSF1R human Fc tagged recombinant protein and the cynomolgus monkey CSF1R human Fc tagged recombinant protein were coated to the surface of MaxiSorp™ flat-bottom 96 well plate at 1 μg/ml. The purified IgG samples were titrated in two fold serial dilutions starting from 500 nM to 0.008 nM and allowed to bind to the coated antigens. The Fabs were detected using mouse anti-c-myc antibody followed by donkey anti-mouse IgG conjugated to horseradish peroxidase. The IgGs were detected using the mouse anti-human IgG conjugated to horseradish peroxidase. Binding signals were visualized with 3,3′,5,5′-Tetramethylbenzidine Substrate Solution (TMB) and the absorbance measured at 450 nm.

EC50 (read off the curve) | Binder
~0.1 nM | B1
~0.08 nM | B3

target: T5, human CSF1R human Fc tagged recombinant …; experiment: as above; remark: another data set of the same source
Protocol: as §3

EC50 (read off the curve) | Binder
~0.1 nM | B1

target: T4, monomeric human CSF1R ectodomain protein; experiment: AlphaScreen competition with mu0301 IgG4(S228P) for biotinylated monomeric human CSF1R
Protocol: The AlphaScreen assay (Perkin Elmer) was performed in a 25 μl final volume in 384-well white microtiter plates (Greiner). The reaction buffer contained 1×PBS pH 7.3 (Oxoid, Cat. nr. BR0014G) and 0.05% (v/v) Tween® 20 (Sigma, Cat. nr. P9416). Purified IgG samples were titrated in three fold serial dilutions starting at 500 nM final concentration and incubated with biotinylated human CSF1R for 20 minutes at room temperature. […] The emission of light was measured in the EnVision multilabel plate reader (Perkin Elmer) and analysed using the EnVision manager software. Values were reported as Counts Per Second (CPS) and corrected for crosstalk. The EC50 values were calculated using the […] in GraphPad Prism software (GraphPad Software, La Jolla, Calif.).

IC50 | Binder
1.29 nM | B1
2.56 nM | B3
2.38 nM | B4
2.16 nM | B5
1.93 nM | B6
1.53 nM | B7

Target: T2, cynomolgus monkey CSF1R human Fc tagged …
Experiment: direct titration ELISA on coated cyno CSF1R-Fc, IgG4(S228P) format, OD 450 nm
Protocol: as §3

EC50 (read off the curve) | Binder
~0.2 nM | B1
~0.07 nM | B4

Target: T1, monomeric cynomolgus monkey CSF1R …
Experiment: SPR Biacore; KD on monomeric cyno CSF1R against KD of the same clone on monomeric human CSF1R as reference
Protocol: as §1

human/cyno affinity differential | Binder
< 3 fold | B5
< 3 fold | B6
< 3 fold | B7

target: T6, human insulin (human, UniProt P01308 25-54; P01308 90-110, limits assumed); experiment: ELISA on human insulin (development risk, polyreactivity), binding score
T6 construct: Coated antigen of the polyreactivity ('PK-risk indicator') ELISA
T6 sequence (P01308 25-54 limits assumed, chain 1 of 2): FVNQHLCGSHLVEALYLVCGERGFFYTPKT
T6 sequence (P01308 90-110 limits assumed, chain 2 of 2): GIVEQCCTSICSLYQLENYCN

binding result | Binder
no binding | B1
no binding | B4
no binding | B2

target: T3, human CSF1R, membrane-presented on cells; experiment: flow cytometry on HEK-293 cells expressing human CSF1R, MFI; remark: another data set of the same source

EC50 (read off the curve) | Binder
~1 nM | B3
~1 nM | B4

Target: T2, cynomolgus monkey CSF1R human Fc tagged …
Experiment: direct titration ELISA on coated cyno CSF1R-Fc, IgG4(S228P) format, OD 450 nm
Remark: another data set of the same source
Protocol: as §3

EC50 (read off the curve) | Binder
~0.09 nM | B3
~0.08 nM | B4
